Assay results: US20250205337A1, “COMPOSITIONS AND METHODS FOR ACTIVATING IMMUNE CELLS” (MDX Management LLC, priority 2022, published 2025)
“Also recorded” adds a separate entry of the source.

Legend:
Assay type in all cases: cell-based, human
κAPC = experiment: Proinflammatory phenotype of κAPC (KX2 refinement); conditions: in the presence of tumor cells
From the text: Karnelian X1 cytokines, additional cytokines, TLR ligands and other factors for phenotypic optimization of cMo-derived APCs were further tested. These efforts led to the formation of Karnelian X2, which acted to further bolster κAPC for phagocytosis, immunogenic antigen presentation, and T cell priming, and also endowed κAPC with a proinflammatory phenotype and the ability to resist repolarization in the tumor microenvironment. KX2™ comprises cytokines (choices of IFNα, IFNγ and TNFα), TLR ligands (choices of Poly IC, CpG, R848), and TPI-1.

[1] = test system: Akt, Erk1/2, STAT3, caspase-9 and caspase-3 in cMo; experiment: Survival and apoptosis signal transduction in cMo (Western blotting)
From the text: (§1) Examination of Akt and Erk1/2, as well as other signaling molecules, detected similar total levels in Mo versus cMo (FIG. 2C), ruling out the absence of protein phosphorylation due to reduction of protein translation.
(§2) The mechanisms by which KX1 could promote cMo survival was further studied.
The role of IL-10 and other key factors in KX1 was further studied. As shown in FIG. 9A-9D, depletion of IL-10 diminished (>70%) KX1-mediated activation of Akt, Erk 1/2, and STAT3, and this global reduction of survival signal was associated with an increase in cell death signal through activation of caspase-9 and caspase-3.
As shown in FIG. 10A-10C, triple cytokine combination (C-combo V1) was capable of achieving >80% cMo differentiation, although each component alone was not sufficient.

[2] = test system: monocytes from cancer patients (cMo); experiment: cMo survival in vitro (STAT3 activators, inhibitors, M-CSF/GM-CSF, KX1)
From the text: After two days, the T cell culture medium was used to treat cMo.
IL-10/IL-10R signaling activates the downstream STAT3 signaling pathway.
as §2

[3] = test system: monocytes from healthy donors (Mo); experiment: Response of monocytes from healthy donors (Mo) to M-CSF and GM-CSF
From the text: Similarly, cMo poorly respond to GM-CSF alone or GM-CSF plus IL-4 that drives DC differentiation (data not shown). […] Parallel experiments testing the same M-CSF and GM-CSF reagents successfully differentiated Mo from healthy donors with >90% survival rates.
as §1

[4] = test system: monocytes from cancer patients (cMo); experiment: Cytokine depletion assays of Karnelian X1 (cMo survival/adhesion and differentiation); conditions: depletion assays
Procedure: The differentiation of cMo from >100 cancer patient samples was tested.
The role of IL-10 and other key factors in KX1 was further studied.

IL-10 = IL-10 production by cMo
From the text: Particularly, high levels of IL-10 and IL-6 were detected in Karnelian X1. Further cytokine depletion assays confirmed the critical role of IL-10, and its depletion largely (60-80%) diminished the capacity of cMo adhesion and survival (FIG. 5B).

In the case of `O=C1C=CC(=O)C(c2cc(Cl)ccc2Cl)=C1` [TPI-1], the “proinflammatory phenotype of κAPC” value (κAPC) is reported as “promotes proinflammatory phenotype of κAPC”.

B1: M-CSF: classical macrophage differentiation factor (protein, UniProt P09603 33-554, looked up)
Macrophage colony-stimulating …: EEVSEYCSHMIGSGHLQSLQRLIDSQMETSCQITFEFVDQEQLKDPVCYLKKAFLLVQDIMEDTMRFRDNTPNAIAIVQLQELSLRLKSCFTKDYEEHDKACVRTFYETPLQLLEKVKNVFNETKNLLDKDWNIFSKNCNNSFAECSSQDVVTKPDCNCLYPKAIPSSDPASVSPHQPLAPSMAPVAGLTWEDSEGTEGSSLLPGEQPLHTVDPGSAKQRPPRSTCQSFEPPETPVVKDSTIGGSPQPRPSVGAFNPGMEDILDSAMGTNWVPEEASGEASEIPVPQGTELSPSRPGGGSMQTEPARPSNFLSASSPLPASAKGQQPADVTGTALPRVGPVRPTGQDWNHTPQKTDHPSALLRDPPEPGSPRISSLRPQGLSNPSTLSAQPQLSRSHSSGSVLPLGELEGRRSTRDRRSPAEPEGGPASEGAARPLPRFNSVPLTDTGHERQSEGSFSPQLQESVFHLLVPSVILVLLAVGGLLFYRWRRRSHQEPQRADSPLEQPEGSPLTQDDRQVELPV
In the case of B1, the “activation of Akt, Erk1/2, STAT3 in cMo” value [1] is reported as “failed to activate Akt and Erk1/2”, the “caspase-9 and caspase-3 cleavage in cMo” value [1] is reported as “increased caspase-9 and caspase-3 cleavage; also recorded: did induce apoptotic signals via cleavage of caspase-9 and caspase-3” and the “cMo responsiveness to differentiation factor” value ([2]; over twenty cMo samples, various solid tumors) is reported as “non- or poor responsiveness”. The “survival signal transduction in Mo (activation of Akt and Erk1/2)” value [3] was “induced strong survival signal transduction in Mo cells” and the “role of the cytokine in Karnelian X1 for cMo survival and differentiation” value [4] was “dispensable”.

B2: IL-12: IL-12 family cytokine, STAT3 activator (protein, UniProt P29459 23-219; P29460 23-328, looked up)
Interleukin-12 subunit alpha: RNLPVATPDPGMFPCLHHSQNLLRAVSNMLQKARQTLEFYPCTSEEIDHEDITKDKTSTVEACLPLELTKNESCLNSRETSFITNGSCLASRKTSFMMALCLSSIYEDLKMYQVEFKTMNAKLLMDPKRQIFLDQNMLAVIDELMQALNFNSETVPQKSSLEEPDFYKTKIKLCILLHAFRIRAVTIDRVMSYLNAS
Interleukin-12 subunit beta: IWELKKDVYVVELDWYPDAPGEMVVLTCDTPEEDGITWTLDQSSEVLGSGKTLTIQVKEFGDAGQYTCHKGGEVLSHSLLLLHKKEDGIWSTDILKDQKEPKNKTFLRCEAKNYSGRFTCWWLTTISTDLTFSVKSSRGSSDPQGVTCGAATLSAERVRGDNKEYEYSVECQEDSACPAAEESLPIEVMVDAVHKLKYENYTSSFFIRDIIKPDPPKNLQLKPLKNSRQVEVSWEYPDTWSTPHSYFSLTFCVQVQGKSKREKKDRVFTDKTSATVICRKNASISVRAQDRYYSSSWSEWASVPCS
For B2, the “induction of IL-10 in cMo” value (IL-10) was “induction of IL-10”, the “cMo survival (and differentiation) on supplementation” value ([2]; IL-10-depleted KX1 / in place of IL-10) was “could replace IL-10 to support cMo survival and differentiation” and the “Effectiveness (cMo survival rate)” value ([2]; in vitro, at optimal concentration) was 50-70%. The “Optimal concentration (ng/mL)” value ([2]; promoting cMo survival in vitro) was >10 ng/mL (10-100).
